From US20260061042A1, “POLYNUCLEOTIDE COMPOSITIONS AND USES THEREOF” (Pfizer Inc., priority 2024, published 2026)

System: E. coli strain CFT073 expressing the fimbrial adhesin PapG
Experiment: PapG hemagglutination inhibition (HAI) assay on sera of mice immunized with PapG modRNA LNPs
Assay type: in vivo
Details: 50 μl IM; for Step Titer GMT (HAI): weeks 0, 4, bleed week 6, GMT of individual titers; for Step Titer Pool (HAI): weeks 0, 4, bleed week 6, serum pool
Excerpt: Escherichia coli to the uroepithelium of human kidney. The PapG lectin binds to the globoside (GbO4) glycolipid, which is enriched in urinary tract tissue and consists of the tetrasacharide GalNAcβ1-3Galα1-4Galβ1-4Glc linked to ceramide. Here we present the use of a hemagglutination inhibition assay (HAI) to determine vaccine functional responses to protein subunit PapG or mRNA-expressed PapG antigens. In this assay the agglutination of human red blood cells (hRBCs) expressing GbO4 is caused by live E. coli CFT073 bacteria expressing PapG. The HAI assay measures the ability of PapG-elicited antibodies to prevent hRBC agglutination, exemplifying inhibition of the key bacterial adherence mechanism leading to clinical pyelonephritis. The assay was used to characterize the functional activity of PapG monoclonal antibodies (mAbs) raised against a PapG lectin domain subunit antigen. PapG HAI data from a mouse immunogenicity study are described that evaluated various 5 monovalent PapG modRNA LNPs and a PapG subunit comparator.
In this mouse study immunogenicity of different PapG mRNA constructs were evaluated. […]
iii. PapG Hemagglutination Inhibition Assay (HAI) 1. Preparation of Single Use Frozen E. coli CFT073 Banks Frozen bacterial stocks for use in the PapG HAI are stored at a concentration of ˜15 OD/mL. For stock preparation, take 6 ×100 μL of frozen parental strain CFT073 glycerol stock to seed six overnight cultures with ˜85 mL Luria's Broth (LB) each in 250 mL vented flasks. Flasks are shaken at 200 rpm and 37° C. overnight. On the same day, prepare 100 mL LB media with 30% glycerol and 0.4% sucrose by mixing […] 80% Glycerol with 0.8 mL 50% Sucrose in 64 mL LB and pre-chill at 4° C. After ˜16 h growth, determine the OD600 nm of each flask with the SpectraMax M5e plate reader by adding 100 μL culture to 900 μL LB (1:10 dilution). After reading the OD600, harvest cells by pelleting in a centrifuge at 4,000g, 4° C., for 30 minute. Determine the total OD of each of the six flasks, by multiplying the volume by OD/mL of each flask and divide by 15 OD to give the appropriate pellet resuspension volume. Discard supernatants and resuspend all pellets in the pre-chilled LB cryopreservant containing 30% glycerol and 0.4% sucrose, with a final volume as calculated above. Pool all resuspended pellets and mix gently, then aliquot into 1 mL/cryotube, and freeze at −70° C.
2. Preparing 10% hRBC Working Solution From Stock
Gently mix human red blood cells (hRBC) bottle (Rockland) by rocking ˜20×times, pipet out 10 mL of the hRBCs into a 15 ml conical tube. Centrifuge at 2,000 rpm(˜990×g) for 10 minutes and 4° C. Aspirate and discard the supernatant, then resuspend the pellet with 9 mL 4° C. PBS. The packed hRBCs in 15 mL conical tube should constitute roughly 1 mL of this total volume. Store these 10% hRBCs at 4° C. until use. […]
iv. PapG Hemagglutination Inhibition (HAI) Assay
The PapG hemagglutination inhibition (HAI) assay uses human red blood cells (hRBCs), which naturally express the PapG ligand GbO4 (globotetraosyl ceramide) on the cell surface, and the E. coli strain CFT073 expressing the fimbrial adhesin PapG. Upon mixing bacteria with hRBCs, […] cells remain suspended (presenting as a cloudy well), while no binding results in the red blood cells falling out of solution towards the center of the well (observed as pellet).
The total final well volume is 100 μL, with serum dilutions comprising 25 μL of this volume, strain CFT073 cells in […] volume, and hRBCs in a 50 μL volume. The assay plate is a V-bottom plate to which 25 μL 4° C. PBS is initially added to all wells. The positive control wells receive an additional 25 μL 4° C. PBS. The no-serum negative control consists of E. coli CFT073 cells plus hRBCs only (resulting agglutinated well appears cloudy). To accommodate pre-diluted sera transferred from the serum Master Dilution plate (MDP) an extra 5 μL 4° C. PBS is added to wells in Row A of the assay plate (columns 1 to 12). […]

B1: BMD562_PapG-DSF K172A_DAF-GPI: monovalent PapG modRNA LNP; RNA construct SEQ ID NO: 63 (nucleic acid)
chain: AGGAAAUAAGAGAAAGAGGAUAAGACGACUAAGGAGACAUACAGAAUAAGAGGCAGCCACCAUGGAGACCGACACCCUCCUGCUGUGGGUGCUGUUACUGUGGGUGCCCGGUAGCACCGGCUGGAACAACAUCGUGUUCUACAGCCUGGGCAACGUGAACAGCUACCAAGGCGGCAACGUGGUGAUCACACAGAGACCUCAGUUCAUCACAAGCUGGAGACCCGGCAUCGCCACCGUGACCUGGAAUCAGUGCAACGGCCCCGAGUUCGCCGACGGCAGCUGGGCCUACUACAGAGAGUACAUCGCCUGGGUGGUGUUCCCCAAGAAGGUGAUGACCAAGAACGGCUACCCCCUGUUCAUCGAGGUGCACAACAAGGGCAGCUGGAGCGAGGAGAACACCGGCGACAGCGACAGCUACUUCUUCCUGAAGGGCUACAAGUGGGACGAGAGAGCCUUCGACGCCGGCAACCUGUGUCAGAAGCCGGGGGAGACGACCCGGCUUACAGAAAAGUUCAACGACAUCAUCUUCAAGGUGGCCCUGCCCGCCGACCUGCCCCUGGGCGACUACAGCGUGACCAUCCCCUACACAAGCGGCAUUCAGAGACACUUCGCUAGCUACCUGGGCGCUAGAUUCGCCAUCCCCUACAACGUGGCCAAGACCCUGCCUAGAGAGAACGAGAUGCUGUUCCUGUUCAAGAACAUCGGCGGCUGCAGACCUAGCGCUCAGAGCCUGGAGAUCAAGCACGGCGACCUGAGCAUCAACAGCGCCAACAACCACUACGCCGCUCAGACCCUGAGCGUGAGCUGCGACGUGCCCGCCAACAUCAGAUUCAUGCUGCUGAGAUCAACCACCCCCACCUACAGCCACGGCAAGAAGUUCAGCGUGGGCCUGGGCCACGGCUGGGACAGCAUCGUGAGCGUGAACGGCGUGGACACGGGCGAGACCACUAUGCGUUGGUACAAGGCCGGCACACAGAGCCUGACCAUCGGCAGCAGACUGUACGGCGAGAGCAGCAAGAUUCAACCGGGCGUGCUUAGUGGUUCCGCCACCCUGCUGAUGAUUCUGCCCGGCGGAAGCAGCGGCGGCGCCGACGUGCAGAUCAACAUCAGAGGCAACGUGUACAUACCCCCUUCGAGCGGAGGCGGCGGAUCGUCCGGCUCCGGGAGCAGCAGCGGCACCACACGGCUGCUGAGCGGCCACACCUGCUUCACCCUGACCGGCCUGCUGGGCACCCUGGUGACCAUGGGCCUGCUGACCUGAUGAGCUCGCUUUCUUGCUGUCCAAUUUCUAUUAAAGGUUCCUUUGUUCCCUAAGUCCAACUACUAAACUGGGGGAUAUUAUGAAGGGCCUUGAGCAUCUGGAUUCUGCCUAAUAAAAAACAUUUAUUUUCAUUGCAAAAAAAAAAAAAAAAAAAAAAAAAAAAAAAAAAAAAAAAAAAAAAAAAAAAAAAAAAAAAAAAAAAAAAAAAAAAAAAAAA
modifications: modRNA in LNP
1 μg
  Step Titer GMT (HAI): 65,875
  Step Titer Pool (HAI): 81,000

B2: BMD576_PapG-DSF K172A_DAF-GPI: monovalent PapG modRNA LNP; RNA construct SEQ ID NO: 64 (nucleic acid)
chain: AGGAGGACUGGUCGAACCUGCAUAGUGAUCAUAAGGUCAGCAUAGCCACCAUGGAGACCGACACCCUCCUGCUGUGGGUGCUGUUACUGUGGGUGCCCGGUAGCACCGGCUGGAACAACAUCGUGUUCUACAGCCUGGGCAACGUGAACAGCUACCAAGGCGGCAACGUGGUGAUCACACAGAGACCUCAGUUCAUCACAAGCUGGAGACCCGGCAUCGCCACCGUGACCUGGAAUCAGUGCAACGGCCCCGAGUUCGCCGACGGCAGCUGGGCCUACUACAGAGAGUACAUCGCCUGGGUGGUGUUCCCCAAGAAGGUGAUGACCAAGAACGGCUACCCCCUGUUCAUCGAGGUGCACAACAAGGGCAGCUGGAGCGAGGAGAACACCGGCGACAGCGACAGCUACUUCUUCCUGAAGGGCUACAAGUGGGACGAGAGAGCCUUCGACGCCGGCAACCUGUGUCAGAAGCCGGGGGAGACGACCCGGCUUACAGAAAAGUUCAACGACAUCAUCUUCAAGGUGGCCCUGCCCGCCGACCUGCCCCUGGGCGACUACAGCGUGACCAUCCCCUACACAAGCGGCAUUCAGAGACACUUCGCUAGCUACCUGGGCGCUAGAUUCGCCAUCCCCUACAACGUGGCCAAGACCCUGCCUAGAGAGAACGAGAUGCUGUUCCUGUUCAAGAACAUCGGCGGCUGCAGACCUAGCGCUCAGAGCCUGGAGAUCAAGCACGGCGACCUGAGCAUCAACAGCGCCAACAACCACUACGCCGCUCAGACCCUGAGCGUGAGCUGCGACGUGCCCGCCAACAUCAGAUUCAUGCUGCUGAGAUCAACCACCCCCACCUACAGCCACGGCAAGAAGUUCAGCGUGGGCCUGGGCCACGGCUGGGACAGCAUCGUGAGCGUGAACGGCGUGGACACGGGCGAGACCACUAUGCGUUGGUACAAGGCCGGCACACAGAGCCUGACCAUCGGCAGCAGACUGUACGGCGAGAGCAGCAAGAUUCAACCGGGCGUGCUUAGUGGUUCCGCCACCCUGCUGAUGAUUCUGCCCGGCGGAAGCAGCGGCGGCGCCGACGUGCAGAUCAACAUCAGAGGCAACGUGUACAUACCCCCUUCGAGCGGAGGCGGCGGAUCGUCCGGCUCCGGGAGCAGCAGCGGCACCACACGGCUGCUGAGCGGCCACACCUGCUUCACCCUGACCGGCCUGCUGGGCACCCUGGUGACCAUGGGCCUGCUGACCUGAUGAGCUCGCUUUCUUGCUGUCCAAUUUCUAUUAAAGGUUCCUUUGUUCCCUAAGUCCAACUACUAAACUGGGGGAUAUUAUGAAGGGCCUUGAGCAUCUGGAUUCUGCCUAAUAAAAAACAUUUAUUUUCAUUGCAAAAAAAAAAAAAAAAAAAAAAAAAAAAAAAAAAAAAAAAAAAAAAAAAAAAAAAAAAAAAAAAAAAAAAAAAAAAAAAAAA
modifications: modRNA in LNP
0.2 μg
  Step Titer GMT (HAI): 50,054
  Step Titer Pool (HAI): 54,000
1 μg
  Step Titer GMT (HAI): 69,595
  Step Titer Pool (HAI): 27,000
5 μg
  Step Titer GMT (HAI): 141,214
  Step Titer Pool (HAI): 81,000
